Laboratory results reported in patent US20110097323A1 (published 2011).

T1: CD32B (FcγRII-B) (UniProt P31994 43-217, limits assumed)
T1 construct: No species or construct stated
T1 sequence (looked up): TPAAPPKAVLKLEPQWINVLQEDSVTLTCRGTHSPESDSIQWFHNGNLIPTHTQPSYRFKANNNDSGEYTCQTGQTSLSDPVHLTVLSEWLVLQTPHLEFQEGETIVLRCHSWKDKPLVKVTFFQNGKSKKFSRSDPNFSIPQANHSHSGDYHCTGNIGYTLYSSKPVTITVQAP


How the values were obtained:
Assay in all cases: Table 3; relative to wild-type Fc; method not stated
CD16A F158 = CD16A F158 (human, UniProt P08637 17-208, limits assumed)
CD16A V158 = CD16A V158 (human, UniProt P08637 17-208, limits assumed)
CD32B (FcγRII-B) = biological target: T1, CD32B (FcγRII-B)

Sequence of CD16A F158 (P08637 17-208 limits assumed): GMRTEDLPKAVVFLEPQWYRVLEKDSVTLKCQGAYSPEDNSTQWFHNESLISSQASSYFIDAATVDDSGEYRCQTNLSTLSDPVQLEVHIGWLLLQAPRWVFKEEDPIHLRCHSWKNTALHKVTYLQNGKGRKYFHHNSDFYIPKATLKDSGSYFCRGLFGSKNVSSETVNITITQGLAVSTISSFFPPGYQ
Sequence of CD16A V158 (P08637 17-208 F176V limits assumed): as the sequence (P08637 17-208 limits assumed) above, with F160V counted along it

| binding relative to wild-type Fc (fold) (CD16A F158) | binding relative to wild-type Fc (fold) (CD16A V158) | binding relative to wild-type Fc (fold) (CD32B (FcγRII-B)) | Binder |
| --- | --- | --- | --- |
| 0.94 | 1.22 | 1.07 | Fc variant D270E G316D P396L R416G (other, UniProt P01857-1 99-330, looked up, name in EU numbering, domain: Fc region; positions are EU index; also called D270E P396L G316D R416G) EPKSCDKTHTCPPCPAPELLGGPSVFLFPPKPKDTLMISRTPEVTCVVVDVSHEEPEVKFNWYVDGVEVHNAKTKPREEQYNSTYRVVSVLTVLHQDWLNDKEYKCKVSNKALPAPIEKTISKAKGQPREPQVYTLPPSRDELTKNQVSLTCLVKGFYPSDIAVEWESNGQPENNYKTTPLVLDSDGSFFLYSKLTVDKSGWQQGNVFSCSVMHEALHNHYTQKSLSLSPGK |
| 2.46 | 1.89 | 0.58 | Fc variant P247L D270E N421K (other, UniProt P01857-1 99-330, looked up, name in EU numbering, domain: Fc region; positions are EU index) EPKSCDKTHTCPPCPAPELLGGPSVFLFPPKLKDTLMISRTPEVTCVVVDVSHEEPEVKFNWYVDGVEVHNAKTKPREEQYNSTYRVVSVLTVLHQDWLNGKEYKCKVSNKALPAPIEKTISKAKGQPREPQVYTLPPSRDELTKNQVSLTCLVKGFYPSDIAVEWESNGQPENNYKTTPPVLDSDGSFFLYSKLTVDKSRWQQGKVFSCSVMHEALHNHYTQKSLSLSPGK |
| 1.65 | 1.34 | 0.87 | Fc variant R255L D270E P396L (other, UniProt P01857-1 99-330, looked up, name in EU numbering, domain: Fc region; positions are EU index) EPKSCDKTHTCPPCPAPELLGGPSVFLFPPKPKDTLMISLTPEVTCVVVDVSHEEPEVKFNWYVDGVEVHNAKTKPREEQYNSTYRVVSVLTVLHQDWLNGKEYKCKVSNKALPAPIEKTISKAKGQPREPQVYTLPPSRDELTKNQVSLTCLVKGFYPSDIAVEWESNGQPENNYKTTPLVLDSDGSFFLYSKLTVDKSRWQQGNVFSCSVMHEALHNHYTQKSLSLSPGK |
| 1.71 | 1.89 | 0.17 | Fc variant F243L P247L N421K (other, UniProt P01857-1 99-330, looked up, name in EU numbering, domain: Fc region; positions are EU index) EPKSCDKTHTCPPCPAPELLGGPSVFLLPPKLKDTLMISRTPEVTCVVVDVSHEDPEVKFNWYVDGVEVHNAKTKPREEQYNSTYRVVSVLTVLHQDWLNGKEYKCKVSNKALPAPIEKTISKAKGQPREPQVYTLPPSRDELTKNQVSLTCLVKGFYPSDIAVEWESNGQPENNYKTTPPVLDSDGSFFLYSKLTVDKSRWQQGKVFSCSVMHEALHNHYTQKSLSLSPGK |
| 8.25 | 10.1 | 1.38 | Fc variant F243L R292P Y300L V305I P396L (other, UniProt P01857-1 99-330, looked up, name in EU numbering, domain: Fc region) EPKSCDKTHTCPPCPAPELLGGPSVFLLPPKPKDTLMISRTPEVTCVVVDVSHEDPEVKFNWYVDGVEVHNAKTKPPEEQYNSTLRVVSILTVLHQDWLNGKEYKCKVSNKALPAPIEKTISKAKGQPREPQVYTLPPSRDELTKNQVSLTCLVKGFYPSDIAVEWESNGQPENNYKTTPLVLDSDGSFFLYSKLTVDKSRWQQGNVFSCSVMHEALHNHYTQKSLSLSPGK |
|  |  | 0.65 | Fc variant R255L D270E R292G P396L (other, UniProt P01857-1 99-330, looked up, name in EU numbering, domain: Fc region; positions are EU index) EPKSCDKTHTCPPCPAPELLGGPSVFLFPPKPKDTLMISLTPEVTCVVVDVSHEEPEVKFNWYVDGVEVHNAKTKPGEEQYNSTYRVVSVLTVLHQDWLNGKEYKCKVSNKALPAPIEKTISKAKGQPREPQVYTLPPSRDELTKNQVSLTCLVKGFYPSDIAVEWESNGQPENNYKTTPLVLDSDGSFFLYSKLTVDKSRWQQGNVFSCSVMHEALHNHYTQKSLSLSPGK |
| 1.34 | 1.5 | 0.2 | Fc variant F243L D270E G316D R416G (other, UniProt P01857-1 99-330, looked up, name in EU numbering, domain: Fc region; positions are EU index) EPKSCDKTHTCPPCPAPELLGGPSVFLLPPKPKDTLMISRTPEVTCVVVDVSHEEPEVKFNWYVDGVEVHNAKTKPREEQYNSTYRVVSVLTVLHQDWLNDKEYKCKVSNKALPAPIEKTISKAKGQPREPQVYTLPPSRDELTKNQVSLTCLVKGFYPSDIAVEWESNGQPENNYKTTPPVLDSDGSFFLYSKLTVDKSGWQQGNVFSCSVMHEALHNHYTQKSLSLSPGK |
| 1.15 | 1.46 | 0.26 | Fc variant F243L D270E P396L Q419H (other, UniProt P01857-1 99-330, looked up, name in EU numbering, domain: Fc region; positions are EU index) EPKSCDKTHTCPPCPAPELLGGPSVFLLPPKPKDTLMISRTPEVTCVVVDVSHEEPEVKFNWYVDGVEVHNAKTKPREEQYNSTYRVVSVLTVLHQDWLNGKEYKCKVSNKALPAPIEKTISKAKGQPREPQVYTLPPSRDELTKNQVSLTCLVKGFYPSDIAVEWESNGQPENNYKTTPLVLDSDGSFFLYSKLTVDKSRWQHGNVFSCSVMHEALHNHYTQKSLSLSPGK |
| 1.43 | 2.56 |  | Fc variant F243L R292P V305I (other, UniProt P01857-1 99-330, looked up, name in EU numbering, domain: Fc region; positions are EU index) EPKSCDKTHTCPPCPAPELLGGPSVFLLPPKPKDTLMISRTPEVTCVVVDVSHEDPEVKFNWYVDGVEVHNAKTKPPEEQYNSTYRVVSILTVLHQDWLNGKEYKCKVSNKALPAPIEKTISKAKGQPREPQVYTLPPSRDELTKNQVSLTCLVKGFYPSDIAVEWESNGQPENNYKTTPPVLDSDGSFFLYSKLTVDKSRWQQGNVFSCSVMHEALHNHYTQKSLSLSPGK |
| 2.53 | 5.37 | 0.4 | Fc variant F243L R292P V305I P396L (other, UniProt P01857-1 99-330, looked up, name in EU numbering, domain: Fc region; positions are EU index) EPKSCDKTHTCPPCPAPELLGGPSVFLLPPKPKDTLMISRTPEVTCVVVDVSHEDPEVKFNWYVDGVEVHNAKTKPPEEQYNSTYRVVSILTVLHQDWLNGKEYKCKVSNKALPAPIEKTISKAKGQPREPQVYTLPPSRDELTKNQVSLTCLVKGFYPSDIAVEWESNGQPENNYKTTPLVLDSDGSFFLYSKLTVDKSRWQQGNVFSCSVMHEALHNHYTQKSLSLSPGK |
| 2.44 | 3.16 | 0.44 | Fc variant F243L D270E K392T P396L (other, UniProt P01857-1 99-330, looked up, name in EU numbering, domain: Fc region; positions are EU index) EPKSCDKTHTCPPCPAPELLGGPSVFLLPPKPKDTLMISRTPEVTCVVVDVSHEEPEVKFNWYVDGVEVHNAKTKPREEQYNSTYRVVSVLTVLHQDWLNGKEYKCKVSNKALPAPIEKTISKAKGQPREPQVYTLPPSRDELTKNQVSLTCLVKGFYPSDIAVEWESNGQPENNYTTTPLVLDSDGSFFLYSKLTVDKSRWQQGNVFSCSVMHEALHNHYTQKSLSLSPGK |
| 3.45 | 2.3 | 0.32 | Fc variant F243L P247L D270E N421K (other, UniProt P01857-1 99-330, looked up, name in EU numbering, domain: Fc region; positions are EU index) EPKSCDKTHTCPPCPAPELLGGPSVFLLPPKLKDTLMISRTPEVTCVVVDVSHEEPEVKFNWYVDGVEVHNAKTKPREEQYNSTYRVVSVLTVLHQDWLNGKEYKCKVSNKALPAPIEKTISKAKGQPREPQVYTLPPSRDELTKNQVSLTCLVKGFYPSDIAVEWESNGQPENNYKTTPPVLDSDGSFFLYSKLTVDKSRWQQGKVFSCSVMHEALHNHYTQKSLSLSPGK |
| 2.49 | 2.18 | 0.78 | Fc variant D270E G316D R416G (other, UniProt P01857-1 99-330, looked up, name in EU numbering, domain: Fc region; positions are EU index) EPKSCDKTHTCPPCPAPELLGGPSVFLFPPKPKDTLMISRTPEVTCVVVDVSHEEPEVKFNWYVDGVEVHNAKTKPREEQYNSTYRVVSVLTVLHQDWLNDKEYKCKVSNKALPAPIEKTISKAKGQPREPQVYTLPPSRDELTKNQVSLTCLVKGFYPSDIAVEWESNGQPENNYKTTPPVLDSDGSFFLYSKLTVDKSGWQQGNVFSCSVMHEALHNHYTQKSLSLSPGK |
| 1.64 | 1.75 | 0.38 | Fc variant F243L R255L D270E P396L (other, UniProt P01857-1 99-330, looked up, name in EU numbering, domain: Fc region; positions are EU index) EPKSCDKTHTCPPCPAPELLGGPSVFLLPPKPKDTLMISLTPEVTCVVVDVSHEEPEVKFNWYVDGVEVHNAKTKPREEQYNSTYRVVSVLTVLHQDWLNGKEYKCKVSNKALPAPIEKTISKAKGQPREPQVYTLPPSRDELTKNQVSLTCLVKGFYPSDIAVEWESNGQPENNYKTTPLVLDSDGSFFLYSKLTVDKSRWQQGNVFSCSVMHEALHNHYTQKSLSLSPGK |
| 5.62 | 10.1 | 1.07 | Fc variant F243L R292P Y300L P396L (other, UniProt P01857-1 99-330, looked up, name in EU numbering, domain: Fc region; positions are EU index) EPKSCDKTHTCPPCPAPELLGGPSVFLLPPKPKDTLMISRTPEVTCVVVDVSHEDPEVKFNWYVDGVEVHNAKTKPPEEQYNSTLRVVSVLTVLHQDWLNGKEYKCKVSNKALPAPIEKTISKAKGQPREPQVYTLPPSRDELTKNQVSLTCLVKGFYPSDIAVEWESNGQPENNYKTTPLVLDSDGSFFLYSKLTVDKSRWQQGNVFSCSVMHEALHNHYTQKSLSLSPGK |
| 2.28 | 1.81 | 0.79 | Fc variant D270E K392T P396L (other, UniProt P01857-1 99-330, looked up, name in EU numbering, domain: Fc region; positions are EU index) EPKSCDKTHTCPPCPAPELLGGPSVFLFPPKPKDTLMISRTPEVTCVVVDVSHEEPEVKFNWYVDGVEVHNAKTKPREEQYNSTYRVVSVLTVLHQDWLNGKEYKCKVSNKALPAPIEKTISKAKGQPREPQVYTLPPSRDELTKNQVSLTCLVKGFYPSDIAVEWESNGQPENNYTTTPLVLDSDGSFFLYSKLTVDKSRWQQGNVFSCSVMHEALHNHYTQKSLSLSPGK |
|  | 1.64 | 0.68 | Fc variant D270E P396L Q419H (other, UniProt P01857-1 99-330, looked up, name in EU numbering, domain: Fc region; positions are EU index) EPKSCDKTHTCPPCPAPELLGGPSVFLFPPKPKDTLMISRTPEVTCVVVDVSHEEPEVKFNWYVDGVEVHNAKTKPREEQYNSTYRVVSVLTVLHQDWLNGKEYKCKVSNKALPAPIEKTISKAKGQPREPQVYTLPPSRDELTKNQVSLTCLVKGFYPSDIAVEWESNGQPENNYKTTPLVLDSDGSFFLYSKLTVDKSRWQHGNVFSCSVMHEALHNHYTQKSLSLSPGK |
